The record followed here is publication PMC8166844, “The FlhA linker mediates flagellar protein export switching during flagellar assembly” (Communications Biology, 2021).

By Kd is commonly meant the free concentration of one partner at which half of the binding sites on the other are occupied at equilibrium, for simple one-to-one binding. Higher therefore signals a looser complex. As a reminder, the koff is a measure of how fast the partners let go of each other. Low readings indicate a long-lived complex, high ones a short-lived complex. What is called kon is a measure of how fast the partners come together. A lower kon goes with slower complex formation.

Changes are numbered by the printed parent chain. Names and notes keep the numbering of the source.

Assay [1] addresses T1, His-FlhAC (C-terminal cytoplasmic domain of FlhA, residues 328–692), wild type (Salmonella enterica, UniProt P40729 328-692).
T1 construct: also called wild-type FlhAC; WT
T1 sequence: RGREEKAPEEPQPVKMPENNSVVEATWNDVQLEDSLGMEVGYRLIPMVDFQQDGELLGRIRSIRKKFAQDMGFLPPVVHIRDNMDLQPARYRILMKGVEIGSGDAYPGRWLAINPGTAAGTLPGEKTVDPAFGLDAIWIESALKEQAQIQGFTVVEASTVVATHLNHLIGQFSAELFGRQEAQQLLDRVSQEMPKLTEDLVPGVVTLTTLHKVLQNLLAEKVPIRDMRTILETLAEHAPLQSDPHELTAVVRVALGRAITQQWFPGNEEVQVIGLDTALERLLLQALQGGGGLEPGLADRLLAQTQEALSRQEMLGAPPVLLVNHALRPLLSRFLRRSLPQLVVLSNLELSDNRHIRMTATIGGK
The assay is described as follows: BLI; GST-FlgN immobilised on an anti-GST sensor tip (BLItz), His-FlhAC or its variants in solution at various concentrations; kinetic buffer PBS pH 7.4, 0.1% BSA, 0.002% Tween-20; 25 °C; FlhAC-ED and FlhAC-EWD fitted with a two-state reaction model, FlhAC-ΔL with a heterogeneous reaction model; n = 3. The conditions noted are these: both partners purified.

Assay [2] deals with T2, His-FlhAC(E351A/W354A/D356A) (Salmonella enterica, UniProt P40729 328-692, E351A | W354A | D356A).
T2 construct: also called FlhAC-EWD; His-FlhAC-EWD
T2 sequence: T1 sequence with E24A, W27A, D29A
The description is as above. The conditions noted are these: both partners purified.

For assay [3], the target named is T3, His-FlhAC lacking FlhAL (residues 328–361) (Salmonella enterica, UniProt P40729 362-692).
T3 construct: also called FlhAC-ΔL; His-FlhAC-ΔL
T3 sequence: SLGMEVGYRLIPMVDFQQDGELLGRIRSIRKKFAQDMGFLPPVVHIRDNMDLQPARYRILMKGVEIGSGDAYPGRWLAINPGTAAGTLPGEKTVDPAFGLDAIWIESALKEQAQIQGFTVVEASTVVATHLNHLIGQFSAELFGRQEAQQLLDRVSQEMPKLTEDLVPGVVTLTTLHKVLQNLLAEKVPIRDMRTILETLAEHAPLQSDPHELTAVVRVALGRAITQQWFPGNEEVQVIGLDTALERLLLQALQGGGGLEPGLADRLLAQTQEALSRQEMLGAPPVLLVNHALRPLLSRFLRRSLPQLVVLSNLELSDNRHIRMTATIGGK
Described as above. The conditions noted are these: both partners purified.

The target of assay [4] is GST-FliJ (Salmonella enterica), P0A1K1. The assay is described as follows: BLI; GST-FliJ immobilised on an anti-GST sensor tip (BLItz), His-FlhAC or its variants in solution at various concentrations; kinetic buffer PBS pH 7.4, 0.1% BSA, 0.002% Tween-20; 25 °C; wild type fitted with a two-state reaction model, FlhAC-EWD and FlhAC-ΔL with the Hill equation; n = 3. To be noted: remark: other sources report otherwise.
GST-FliJ (Salmonella enterica), P0A1K1, sequence (P0A1K1 whole entry): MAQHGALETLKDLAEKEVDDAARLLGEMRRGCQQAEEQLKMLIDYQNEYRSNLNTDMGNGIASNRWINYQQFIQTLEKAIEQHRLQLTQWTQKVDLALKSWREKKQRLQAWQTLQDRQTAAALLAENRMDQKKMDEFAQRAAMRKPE

Assay [5] concerns the target T4, GST-FlgN (Salmonella enterica), P0A1J7.
T4 chain: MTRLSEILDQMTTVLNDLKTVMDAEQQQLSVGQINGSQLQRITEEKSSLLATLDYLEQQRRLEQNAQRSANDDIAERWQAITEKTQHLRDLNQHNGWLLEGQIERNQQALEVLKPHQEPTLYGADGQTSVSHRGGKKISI
As to the kind of experiment: BLI; GST-FlgN immobilised on an anti-GST sensor tip (BLItz), His-FlhAC or its variants in solution at various concentrations; kinetic buffer PBS pH 7.4, 0.1% BSA, 0.002% Tween-20; 25 °C; FlhAC-ED and FlhAC-EWD fitted with a two-state reaction model, FlhAC-ΔL with a heterogeneous reaction model; n = 3. The conditions noted are these: remark: other sources report otherwise. A general note: BLI is a label-free optical method that tracks binding on a fibre tip over time.

B1: GST-FlgN (natural protein)
chain: T4 chain
notes: also called pMMGN101
In assay [1], B1 displayed a Kd of 0.095 µM, a dissociation rate constant (koff) of approximately 0.000781 s⁻¹ and a kon of approximately 8230 M⁻¹ s⁻¹. Also, the Kd in assay [2] came out at 31.2 µM. The same molecule had a Kd in assay [3] of 3.1 µM.

B2: His-FlhAC lacking FlhAL (residues 328–361), P40729 362-692 (domain or fragment)
chain: T3 sequence
With B2, the dissociation constant Kd in assay [4] was 49 µM.

B3: His-FlhAC (C-terminal cytoplasmic domain of FlhA, residues 328–692), wild type, P40729 328-692 (domain or fragment)
chain: T1 sequence
In assay [4], B3 came in with a Kd of 1.36 µM.

B4: His-FlhAC(E351A/D356A), P40729 328-692 (domain or fragment)
chain: T1 sequence with E24A, D29A
B4 displayed an equilibrium dissociation constant (Kd) in assay [5] of 37.8 µM.

B5: His-FlhAC(E351A/W354A/D356A), P40729 328-692 (domain or fragment)
chain: T1 sequence with E24A, W27A, D29A
B5: the Kd in assay [4] was determined as 60.7 µM.
